Key:
[1] = target: recombinant Trypanosoma evansi enolase (TevENO), His-tagged (Trypanosoma evansi); assay: SEC; analytical SEC, ENrich SEC 650 10 x 300 column, buffer A (50 mM sodium phosphate, 5 mM MgCl2, pH 7.0); 500 μg TevENO, 168.9 μg Nb11, or mixtures at TevENO:Nb11 monomer ratios 2:1, 2:2, 2:3, 2:4 incubated 1 h; peaks analysed by SDS-PAGE
[2] = tested on: T1, TevENO (T. evansi enolase); assay: PYK/LDH coupled assay, NADH absorbance at […] nm, Michaelis-Menten fit; type: biochemical, Trypanosoma evansi; details: 0.1 M triethanolamine/HCl, pH 7.6, 25 °C, 2 mM MgSO4, 17 mM KCl, 1.1 mM ADP, 0.42 mM NADH; 2-PGA 0 to 1 mM
T1 construct: gene ENO; recombinant, codon-optimised gene in pET21b, E. coli BL21(DE3); N-terminal His6 tag and TEV cleavage site, tag cleavage not described

[3] = target: T2, recombinant Trypanosoma evansi enolase (TevENO), His-tagged (Trypanosoma evansi); assay: ELISA; heterologous sandwich ELISA: His-tagged Nb11 coated at 1 μg/mL, TevENO 1 μg/mL in PBS, HA-tagged detection Nb at 1 μg/mL; details: both partners purified
T2 construct: monomer MM = 48.41 kDa as printed; also called T. evansi enolase; recombinant TevENO; source: E. coli BL21 (DE3), purified (IMAC, SEC)
T2 chain: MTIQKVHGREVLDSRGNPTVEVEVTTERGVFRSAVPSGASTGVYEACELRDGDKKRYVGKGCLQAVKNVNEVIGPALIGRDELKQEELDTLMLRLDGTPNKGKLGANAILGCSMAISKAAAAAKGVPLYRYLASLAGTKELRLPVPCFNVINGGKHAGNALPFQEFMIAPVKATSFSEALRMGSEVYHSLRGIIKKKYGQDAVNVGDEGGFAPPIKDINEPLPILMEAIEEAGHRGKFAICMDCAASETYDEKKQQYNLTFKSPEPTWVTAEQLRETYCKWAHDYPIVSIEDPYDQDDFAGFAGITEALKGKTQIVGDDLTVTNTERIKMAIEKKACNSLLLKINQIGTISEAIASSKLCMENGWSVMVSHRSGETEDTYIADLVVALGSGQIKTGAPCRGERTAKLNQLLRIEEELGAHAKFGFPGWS

**Q.** Which stoichiometry N [1] does the source give for “recombinant Trypanosoma evansi enolase (TevENO), His-tagged (enzyme)” here?
**A.** 2

**Q.** With `O=C(O)[C@@H](CO)OP(=O)(O)O` [2-PGA, 2-phosphoglycerate] as the molecule, how does the Km [2] read?
**A.** 52 µM

B1: NbR1-10 (VHH)
VHH: QVQLQESGGGLVQPGGSLRLSCAAPGSIFSIFSGNIMGWYRQAPGKQRDFVASISSGGATNYADSVKGRFTISRDNAKNTVYLQMNNLKPEDTAVYYCNTVGGVHTNSWGQGTQVTVSS
notes: alpaca Nanobody; source: E. coli WK6, periplasmic extract, purified (His-Select Nickel resin, SEC)
**Q.** Does B1 bind [3]?
**A.** binds

From publication PMC7565430, “An Unbiased Immunization Strategy Results in the Identification of Enolase as a Potential Marker for Nanobody-Based Detection of Trypanosoma evansi” (Vaccines, 2020)
